± gives the standard deviation of the averaged measurements. Some results are limits rather than exact numbers.

The chains are these.
B1: library; a variant is named by its letters at N, in order (parent)
chain: AATGTTGTTGATGCAACCATAAAGTGATATTTAATAATTATTTATAATCAGCAACTTAACCACAAAACAACCATATATTGATATNTCACAAAACAACCATAANTTGATATTTTTGTGAATCGAGTATTTCAGCAAAACTACTGCAGTAAGAA

The variants in series [1] derive from B1. Put plainly: relative integration efficiency (T-LR orientation) vs wild-type transposon end (log2 (normalized fold change)); transposon end mutated: left end; higher = more efficient transposition. Conditions: with VchCAST RNA-guided transposition machinery (E. coli BL21(DE3) host, lacZ target). In short, it runs like this:
(§1)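 Co-transformation of E. coli BL21(DE3) combined a pUC57 mini-transposon donor, holding barcoded pools of 1549 left-end or 1849 right-end variants, with a T7-driven plasmid encoding a CRISPR array, tniQ-cas8-cas7-cas6 and tnsA-tnsB-tnsC. After plating with 0.1 mM IPTG at 37°C for 18 h, input plasmids and genomic integration junctions were PCR-amplified and Illumina-sequenced across two biological output replicates, with four reference barcodes. Relative integration efficiency is the normalised, log-transformed output/input barcode fold change.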

In series [2] the parent is B1. Put plainly: relative integration efficiency (T-RL orientation) vs wild-type transposon end (log2 (normalized fold change)); transposon end mutated: left end; higher = more efficient transposition. Conditions: with VchCAST RNA-guided transposition machinery (E. coli BL21(DE3) host, lacZ target). In short, it runs like this:
as §1

For the variant CG T82A A83T, the “relative integration efficiency (log2)” value in series [1] is -0.417 ± 0.84; in series [2], -0.851 ± 0.49.

With GG T84A, the entries for the “relative integration efficiency (log2)” value in series [1] and in series [2] were -0.365 ± 0.032 and -0.231 ± 0.12, respectively.

Consider CT A102C, for which the “relative integration efficiency (log2)” value in series [1] is -1.29 ± 0.9; in series [2], -0.973 ± 0.41.

For CG A22C T76G A102C, the “relative integration efficiency (log2)” value in series [2] is -3.7 ± 1.5.

As to CG T125G, the “relative integration efficiency (log2)” value is 0.265 ± 0.28 in series [1] and -0.0179 ± 0.099 in series [2].

Consider CG T100G, for which the “relative integration efficiency (log2)” value in series [1] is -0.934 ± 1.6; in series [2] it was -0.706 ± 0.73.

For CG T100A, the “relative integration efficiency (log2)” value in series [1] was 0.42 ± 1; in series [2], 0.66 ± 0.49.

As for CG T100C, the “relative integration efficiency (log2)” value in series [1] was -2.04 ± 0.83; in series [2], -1.27 ± 0.52.

In the case of CG T105A G106C, the “relative integration efficiency (log2)” value is -2.53 ± 0.084 in series [1] and -2.19 ± 0.71 in series [2].

As to CG T116A G117C A118T A119T, the “relative integration efficiency (log2)” value was determined as 0.00543 ± 0.19 in series [1] and 0.0211 ± 0.042 in series [2].

Take GG T84A T86A C87G: the “relative integration efficiency (log2)” value in series [1] was 0.0518 ± 0.56; in series [2] it was -0.036 ± 0.31.

In the case of CG T112A T113A, the “relative integration efficiency (log2)” value in series [1] was -0.503 ± 0.53; in series [2], -0.318 ± 0.2.

With CG T112G T113G T114G G115T, the results for the “relative integration efficiency (log2)” value in series [1] and in series [2] were -0.51 ± 0.098 and -0.359 ± 0.072, respectively.

CG T105G: the “relative integration efficiency (log2)” value was -0.747 ± 0.68 in series [1] and -1.17 ± 0.51 in series [2].

In the case of CG T105C, the results for the “relative integration efficiency (log2)” value in series [1] and in series [2] were -0.552 ± 0.81 and -0.583 ± 0.2, respectively.

For the variant CG T105A, the “relative integration efficiency (log2)” value is -1.22 ± 0.29 in series [1] and -0.835 ± 0.58 in series [2].

Take CG T104A T105A G106C A107T: the results for the “relative integration efficiency (log2)” value in series [1] and in series [2] were -1.39 ± 0.94 and -2.04 ± 0.73, respectively.

Regarding CG T114G T120A, the “relative integration efficiency (log2)” value in series [1] is 0.16 ± 0.11; in series [2], -0.2 ± 0.041.

For the variant CG T86G C87A, the figures for the “relative integration efficiency (log2)” value in series [1] and in series [2] were -0.424 ± 0.33 and -0.246 ± 0.1, respectively.

For CG T86A, the “relative integration efficiency (log2)” value is 0.731 ± 0.2 in series [1] and 0.656 ± 0.025 in series [2].

Take CG T86C: the “relative integration efficiency (log2)” value was 0.176 ± 0.013 in series [1] and -0.261 ± 0.092 in series [2].

Take CG T86G: the “relative integration efficiency (log2)” value in series [1] was 0.0399 ± 0.26; in series [2] it was -0.108 ± 0.045.

For the variant CG T113G T114G G115T T116G, the entries for the “relative integration efficiency (log2)” value in series [1] and in series [2] were -0.271 ± 0.14 and -0.144 ± 0.053, respectively.

For CT T104G T105G G106T, the “relative integration efficiency (log2)” value in series [1] is -1.03 ± 0.46; in series [2], -1.06 ± 0.9.

On to CG T5A T6A G7C T8A, for which the “relative integration efficiency (log2)” value in series [2] is -7.12 ± 1.1.

With CG T86A C87G, the “relative integration efficiency (log2)” value in series [1] amounted to 0.622 ± 0.21; in series [2], 0.28 ± 0.099.

Turning to CG T42A A44T C49A G51T C52T C55T A59T C60A C61T C63T A64T A65T, the “relative integration efficiency (log2)” value in series [2] was -2.87 ± 0.52.

Consider CG T82G A83C, for which the “relative integration efficiency (log2)” value in series [1] is -1.19 ± 0.87; in series [2], -1.4 ± 0.66.

As for CG T114G G115T T116G G117T, the “relative integration efficiency (log2)” value was -0.295 ± 0.33 in series [1] and -0.309 ± 0.015 in series [2].

As to CG T113G T114G, the “relative integration efficiency (log2)” value in series [1] is -0.0365 ± 0.41; in series [2], -0.199 ± 0.073.

For the variant CG T76G, the “relative integration efficiency (log2)” value is -0.699 ± 0.91 in series [1] and -0.903 ± 0.5 in series [2].

As for CG T86A C87G A88T C89G, the “relative integration efficiency (log2)” value was 0.1 ± 0.54 in series [1] and -0.174 ± 0.12 in series [2].

For CG T111G T112G, the “relative integration efficiency (log2)” value in series [1] is -0.977 ± 0.75; in series [2] it was -0.622 ± 0.16.

Turning to CG T48A C49T A50T C52T A53G C55G T56C T57G A58G C60T C61A A66T A67T, the “relative integration efficiency (log2)” value in series [2] was -4.31 ± 0.86.

CT A22C A23C G24T T25G T76G A77C T78G T79G A102C T104G T105G: the “relative integration efficiency (log2)” value in series [1] is less than -10; in series [2], -8.29 ± 1.2.

Turning to CT A102C T104G T105G, the entries for the “relative integration efficiency (log2)” value in series [1] and in series [2] were -1.62 ± 0.69 and -1.98 ± 0.87, respectively.

In the case of CT T104G, the “relative integration efficiency (log2)” value in series [1] was -0.14 ± 0.17; in series [2], -0.45 ± 0.14.

Consider CG T79G G80T A81C T82G, for which the “relative integration efficiency (log2)” value in series [1] was -2.43 ± 1.1; in series [2], -2.68 ± 0.95.

On to CG T104A T105A, for which the results for the “relative integration efficiency (log2)” value in series [1] and in series [2] were -0.853 ± 0.48 and -0.642 ± 0.47, respectively.

Turning to CG T110G T111G T112G T113G, the figures for the “relative integration efficiency (log2)” value in series [1] and in series [2] were -1.8 ± 1.2 and -1.4 ± 0.63, respectively.

CG T105G G106T A107C T108G: the entries for the “relative integration efficiency (log2)” value in series [1] and in series [2] were -2.48 ± 1.8 and -2 ± 0.7, respectively.

For CG T86G C87A A88C C89A, the “relative integration efficiency (log2)” value in series [1] is -0.0346 ± 0.016; in series [2], 0.0789 ± 0.1.

Regarding CG T120G C121A G122T A123C G124T T125G, the results for the “relative integration efficiency (log2)” value in series [1] and in series [2] were 0.433 ± 0.18 and 0.166 ± 0.011, respectively.

Turning to CG T105G G106T, the “relative integration efficiency (log2)” value in series [1] is -0.649 ± 0.86; in series [2], -1.2 ± 0.72.

As for CG T110G, the figures for the “relative integration efficiency (log2)” value in series [1] and in series [2] were -0.561 ± 0.13 and -0.516 ± 0.25, respectively.

For the variant CG T110A, the “relative integration efficiency (log2)” value in series [1] was 0.258 ± 0.5; in series [2], -0.016 ± 0.099.

Take CG T110C: the “relative integration efficiency (log2)” value in series [1] is -0.691 ± 0.63; in series [2], -0.405 ± 0.13.

On to CG T110G T111G, for which the “relative integration efficiency (log2)” value in series [1] is -1.08 ± 0.37; in series [2] it was -1.16 ± 0.65.

With CT, the “relative integration efficiency (log2)” value is 0.219 ± 0.67 in series [1] and -0.0852 ± 0.034 in series [2].

On to CG T79C, for which the “relative integration efficiency (log2)” value in series [1] is -0.488 ± 0.74; in series [2], -0.605 ± 0.26.

For CG T79G, the “relative integration efficiency (log2)” value was -0.323 ± 0.18 in series [1] and -0.702 ± 0.47 in series [2].

Take CG T79A: the “relative integration efficiency (log2)” value in series [1] is -0.546 ± 0.48; in series [2], -0.596 ± 0.38.

With CT A23C A77C, the “relative integration efficiency (log2)” value in series [1] was -0.217 ± 1.2; in series [2], -0.234 ± 0.065.

In the case of CG T114G G115T, the results for the “relative integration efficiency (log2)” value in series [1] and in series [2] were 0.781 ± 0.54 and -0.471 ± 0.32, respectively.

Turning to CG T116G G117T, the “relative integration efficiency (log2)” value was -0.146 ± 0.0071 in series [1] and -0.273 ± 0.045 in series [2].

With CG G4C T5A T6A G7C, the “relative integration efficiency (log2)” value in series [2] is -7.62 ± 0.39.

For the variant CT T100G A101C A102C, the entries for the “relative integration efficiency (log2)” value in series [1] and in series [2] were -1.43 ± 0.25 and -2.43 ± 0.88, respectively.

As for CG T78A T79A, the results for the “relative integration efficiency (log2)” value in series [1] and in series [2] were -0.257 ± 0.57 and -0.058 ± 0.35, respectively.

Take CG T114G G115T T116G G117T A118C A119C T120G C121A G122T A123C G124T T125G: the “relative integration efficiency (log2)” value in series [1] amounted to 0.318 ± 0.049; in series [2], 0.295 ± 0.074.

The values above are taken from the supplement of paper PMC10201428.
